Source: patent US20260103529A1, “Amino Acid Sequences Directed Against the Melanocortin 4 Receptor and Polypeptides Comprising the Same for the Treatment of MC4R-Related Diseases and Disorders” (Confo Therapeutics N.V., priority 2022, published 2026)

Assays:
Test in all cases: cell-based or functional assay
[1] = biological target: human wild type MC4R (melanocortin 4 receptor) expressed on HEK293/HEK293T cells (human) (UniProt P32245)
[2] = biological target: human MC5R (melanocortin 5 receptor) (human) (UniProt P33032)
[3] = biological target: human MC1R (melanocortin 1 receptor) (human) (UniProt Q01726)
[4] = biological target: human MC3R (melanocortin 3 receptor) (human) (UniProt P41968)
human MC3R (melanocortin 3 receptor) (human), sequence (P41968 whole entry): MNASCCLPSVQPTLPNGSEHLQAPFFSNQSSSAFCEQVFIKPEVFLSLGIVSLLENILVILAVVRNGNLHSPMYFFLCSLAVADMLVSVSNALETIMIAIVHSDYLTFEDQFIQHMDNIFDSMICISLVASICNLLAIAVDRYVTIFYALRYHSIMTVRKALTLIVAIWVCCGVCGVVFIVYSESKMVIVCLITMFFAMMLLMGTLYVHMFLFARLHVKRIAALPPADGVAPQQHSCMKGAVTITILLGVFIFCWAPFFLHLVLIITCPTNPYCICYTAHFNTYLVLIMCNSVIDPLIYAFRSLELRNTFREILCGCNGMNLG

human wild type MC4R (melanocortin 4 receptor) expressed on HEK293/HEK293T cells (human), sequence (P32245 whole entry): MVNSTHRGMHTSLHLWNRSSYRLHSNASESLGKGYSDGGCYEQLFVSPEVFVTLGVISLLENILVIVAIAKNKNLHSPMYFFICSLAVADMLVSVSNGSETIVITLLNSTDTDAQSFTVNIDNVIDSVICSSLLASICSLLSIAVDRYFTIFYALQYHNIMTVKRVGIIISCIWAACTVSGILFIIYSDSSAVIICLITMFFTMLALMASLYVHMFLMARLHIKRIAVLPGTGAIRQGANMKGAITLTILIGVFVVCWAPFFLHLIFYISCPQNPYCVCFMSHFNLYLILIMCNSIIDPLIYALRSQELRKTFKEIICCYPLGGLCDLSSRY
human MC1R (melanocortin 1 receptor) (human), sequence (Q01726 whole entry): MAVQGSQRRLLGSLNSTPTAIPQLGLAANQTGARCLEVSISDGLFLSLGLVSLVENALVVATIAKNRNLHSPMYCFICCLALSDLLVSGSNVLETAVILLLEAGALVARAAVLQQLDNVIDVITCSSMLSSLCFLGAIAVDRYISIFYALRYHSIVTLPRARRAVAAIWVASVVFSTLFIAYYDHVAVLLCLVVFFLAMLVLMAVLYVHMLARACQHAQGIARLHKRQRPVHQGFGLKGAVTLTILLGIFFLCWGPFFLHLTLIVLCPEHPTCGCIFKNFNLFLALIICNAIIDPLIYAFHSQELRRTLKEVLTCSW
human MC5R (melanocortin 5 receptor) (human), sequence (P33032 whole entry): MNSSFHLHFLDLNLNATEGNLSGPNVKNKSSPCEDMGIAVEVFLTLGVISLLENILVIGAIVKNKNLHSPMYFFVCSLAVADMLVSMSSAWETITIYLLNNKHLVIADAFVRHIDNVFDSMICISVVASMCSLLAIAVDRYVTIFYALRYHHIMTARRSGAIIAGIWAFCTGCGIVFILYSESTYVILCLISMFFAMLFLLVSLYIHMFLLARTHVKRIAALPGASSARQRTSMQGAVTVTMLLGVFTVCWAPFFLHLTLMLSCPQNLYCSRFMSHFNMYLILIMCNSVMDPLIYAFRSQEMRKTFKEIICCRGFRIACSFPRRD

Gs ConfoSensor, 1 mM Ca^2+, EC50 [1]: 0.6 nM
Gs ConfoSensor, No Ca^2+, EC50 [1]: 12 nM
in vitro cAMP potency EC50 (GloSensor) [1]: 2 nM
β-arrestin recruitment, 1 mM Ca^2+, EC50 [1]: 1.3 nM
β-arrestin recruitment, No Ca^2+, EC50 [1]: 18 nM
in vitro cAMP potency EC50 (GloSensor) [2]: 451 nM
in vitro cAMP potency EC50 (GloSensor) [3]: 11.5 nM
in vitro cAMP potency EC50 (GloSensor) [4]: 2.1 nM
Substance: setmelanotide (peptide)
